Data taken from US20220305133A1 (CSL INNOVATION, published 2022).

B1: VR81, mouse monoclonal IgG1κ antibody against the extracellular domain of murine G-CSFR (antibody, V domains shown)
VH: EVQLLESGGGLVQPGGSLRLSCAASGFTFSYYAMWWVRQAPGKGLEWVSLIDVSGGVQLYADSVKGRFTISRDNSKNTLYLQMNSLRAEDTAVYYCAKPLIGTRDAFDIWGQGTMVTVSS
VL: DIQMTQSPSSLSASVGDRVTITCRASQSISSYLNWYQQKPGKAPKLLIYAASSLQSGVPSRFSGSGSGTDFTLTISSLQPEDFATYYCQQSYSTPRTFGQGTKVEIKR
B2: ch3F7-mG1L-aFXII (3F7) (antibody, V domains shown)
VH: EVQLLESGGGLVQPGGSLRLSCAASGFTFSKYIMQWVRQAPGKGLEWVSGIRPSGGTTVYADSVKGRFTISRDNSKNTLYLQMNSLRAEDTAVYYCARALPRSGYLISPHYYYYALDVWGQGTTVTVSS
VL: QSELTQPPSASGTPGQRVTISCSGSSSNIGRNYVYWYQQVPGTAPKLLIYSNNQRPSGVPDRFSGSKSGTSASLVISGLRSEDEADYYCAAWDASLRGVFGGGTKLTVLG

Assays:
[1] = target: T1, murine G-CSF receptor (G-CSFR) on mouse NFS-60 cells (mouse, UniProt P40223 26-837); experiment: cell-based or functional assay
T1 sequence (looked up): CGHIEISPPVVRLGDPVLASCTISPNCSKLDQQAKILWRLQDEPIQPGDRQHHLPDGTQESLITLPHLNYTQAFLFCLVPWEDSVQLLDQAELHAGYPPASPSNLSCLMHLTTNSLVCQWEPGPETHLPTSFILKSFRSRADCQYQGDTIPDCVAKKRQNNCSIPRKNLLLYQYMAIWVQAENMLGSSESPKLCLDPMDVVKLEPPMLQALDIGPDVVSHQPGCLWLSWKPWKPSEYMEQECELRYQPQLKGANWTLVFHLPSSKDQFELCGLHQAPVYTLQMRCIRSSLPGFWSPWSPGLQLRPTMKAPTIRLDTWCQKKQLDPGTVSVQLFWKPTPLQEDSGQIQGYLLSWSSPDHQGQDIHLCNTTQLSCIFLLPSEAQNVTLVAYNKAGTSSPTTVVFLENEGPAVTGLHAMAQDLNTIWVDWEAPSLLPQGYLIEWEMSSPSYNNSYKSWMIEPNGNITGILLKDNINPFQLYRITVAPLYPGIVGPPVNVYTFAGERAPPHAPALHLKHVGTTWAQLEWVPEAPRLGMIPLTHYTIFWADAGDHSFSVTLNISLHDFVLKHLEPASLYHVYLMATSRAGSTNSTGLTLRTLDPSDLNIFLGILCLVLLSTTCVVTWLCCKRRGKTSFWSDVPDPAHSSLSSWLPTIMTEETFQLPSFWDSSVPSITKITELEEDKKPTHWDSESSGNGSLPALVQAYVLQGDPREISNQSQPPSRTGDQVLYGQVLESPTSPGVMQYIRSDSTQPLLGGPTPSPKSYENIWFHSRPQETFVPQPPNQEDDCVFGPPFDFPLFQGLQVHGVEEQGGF

[2] = target: T2, Factor XIIa (activated Factor XII) (UniProt P00748 20-615, limits assumed); experiment: cell-based or functional assay
T2 sequence (looked up): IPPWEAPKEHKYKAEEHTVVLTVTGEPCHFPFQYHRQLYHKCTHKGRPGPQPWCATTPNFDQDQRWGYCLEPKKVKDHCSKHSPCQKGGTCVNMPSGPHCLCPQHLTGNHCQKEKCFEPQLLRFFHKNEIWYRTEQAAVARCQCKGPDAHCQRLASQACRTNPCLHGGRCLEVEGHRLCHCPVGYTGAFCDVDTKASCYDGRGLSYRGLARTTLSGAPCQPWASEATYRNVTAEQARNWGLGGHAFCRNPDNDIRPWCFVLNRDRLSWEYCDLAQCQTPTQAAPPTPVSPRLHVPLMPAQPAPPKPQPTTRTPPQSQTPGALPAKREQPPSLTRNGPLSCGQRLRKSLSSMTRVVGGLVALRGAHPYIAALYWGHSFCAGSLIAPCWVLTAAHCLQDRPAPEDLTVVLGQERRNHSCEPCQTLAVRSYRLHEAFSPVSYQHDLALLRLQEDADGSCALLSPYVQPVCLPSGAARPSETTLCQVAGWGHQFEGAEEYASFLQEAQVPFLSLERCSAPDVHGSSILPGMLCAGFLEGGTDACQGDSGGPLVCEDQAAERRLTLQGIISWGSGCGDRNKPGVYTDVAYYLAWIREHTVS

| Binder | IC50 (nM), inhibition of mG-CSF-dependent proliferation of mouse NFS-60 cells, stimulated with 0.1 ng/ml mG-CSF [1] | IC50 (nM), inhibition of mG-CSF-dependent proliferation of mouse NFS-60 cells, stimulated with 1.0 ng/ml mG-CSF [1] | IC50 (nM), chromogenic assay of Factor XIIa activity [2] |
| --- | --- | --- | --- |
| B1 | 0.00104 nM | 0.00323 nM | – |
| B2 | – | – | 17.2 nM |
